Data published in patent publication US20220041697A1 (NEW YORK UNIVERSITY, published 2022).

Key:
Assay in all cases: binding of antibody dilutions to peptides (FIG. 1)
[1] = biological target: T1, Peptide Tau 386-408[phospho-serine396,404] (phosphoserine at positions 11 and 19 of SEQ ID NO: 1 (Ser396 and Ser404 of SEQ ID NO: 25))
T1 construct: For immunisation it was conjugated to KLH via a cysteine residue; also called P-Ser396, P-Ser404; diphosphorylated peptide

[2] = biological target: T2, Tau 386-408 peptide phosphorylated only on serine 404 (phosphoserine at position 19 of SEQ ID NO: 1 (Ser404 of SEQ ID NO: 25); serine 11 not phosphorylated)
T2 construct: also called P-Ser404; P-Ser404 peptide
T2 sequence (peptide, as listed by the source): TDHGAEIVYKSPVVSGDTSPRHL

[3] = biological target: T3, non-phosphorylated Tau peptide (Tau386-408) (none (serines 11 and 19 of SEQ ID NO: 1 not phosphorylated))
T3 construct: also called No-P; non-phosphorylated peptide

Measured: binding result

B1: Tau mAb 8B2D1 (antibody, V domains shown)
VH: EVQLQQSGPELVKPGASVKMSCKASGYTFTSYVIHWVKQKPGQGLEWIGYIYPYNDGTIYNEKFKGKATLTSDTSSSTVYMELISLTAEDSAVYWCVRERDNYGVYWGQGTTLTVSS
VL: DVLLTQTPLSLPVSLGDQASISCRSSQSIVHSNGNTYLEWYLQKPGQSPELLIYKVSNRFYGVPDRFSGSGSGTDFTLKISRVEAEDLGVYYCFQDSHIPYTFGGGTRLEIK
notes: Mouse (BALB/c) hybridoma monoclonal antibody; also called monoclonal antibody 8B2D1; anti-Tau 8B2D1 mAb
binds: [1] | [2] | [3]
